The source of these data is patent US20230220071A1 (Hoffmann-La Roche, published 2023).

Residue numbers refer to the chain shown, from its start.

Test [1] deals with T1, human transferrin receptor (BIAcore, construct not stated) (human, UniProt P02786 89-760).
T1 construct: also called huTfR
The test is described as follows: SPR, 25 C. Background: SPR reads the build-up and loss of mass on a sensor chip optically.

The target of test [2] is T2, biotinylated human transferrin receptor (human, UniProt P02786 89-760, limits assumed, biotinylated (mono-biotinylated in Example 13)).
T2 construct: also called human transferrin receptor-biotinylated; mono-biotinylated human transferrin receptor
T2 sequence (P02786 89-760 limits assumed): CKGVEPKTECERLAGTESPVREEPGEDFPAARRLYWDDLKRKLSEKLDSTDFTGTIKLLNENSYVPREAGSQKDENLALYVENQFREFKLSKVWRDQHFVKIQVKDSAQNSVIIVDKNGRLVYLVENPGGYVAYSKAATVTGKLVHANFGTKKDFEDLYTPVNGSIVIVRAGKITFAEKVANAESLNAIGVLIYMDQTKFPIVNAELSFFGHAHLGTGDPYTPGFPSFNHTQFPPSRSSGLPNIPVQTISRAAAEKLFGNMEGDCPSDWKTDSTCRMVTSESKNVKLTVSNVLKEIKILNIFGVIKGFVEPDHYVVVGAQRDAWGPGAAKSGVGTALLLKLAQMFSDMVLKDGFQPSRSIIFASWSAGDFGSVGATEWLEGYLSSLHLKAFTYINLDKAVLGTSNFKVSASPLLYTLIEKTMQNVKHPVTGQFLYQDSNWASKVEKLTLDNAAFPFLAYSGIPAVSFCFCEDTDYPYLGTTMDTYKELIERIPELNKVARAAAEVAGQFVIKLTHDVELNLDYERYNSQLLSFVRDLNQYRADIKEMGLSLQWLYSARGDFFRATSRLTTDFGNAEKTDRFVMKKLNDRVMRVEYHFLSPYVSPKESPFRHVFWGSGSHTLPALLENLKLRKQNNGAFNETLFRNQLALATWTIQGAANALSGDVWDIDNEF
Nature of the test: SPR BIAcore B4000, biotinylated TfR captured, 25 C. How it is done: (§1) A CAP sensor chip (provided in the Biotin CAPture Kit, series S #28-9202-34 GE) was mounted into a BIAcore B4000 system, normalized and addressed in a hydrodynamic manner, according to the manufacturer's instructions. In the first cycle the CAP reagent (as provided in the Kit) was addressed to spot 1, 2, 4 and 5 with a flow rate of 10 μL/min for 300 sec. The human transferrin receptor capture took place in spot 1 (human transferrin receptor-biotinylated) and spot 5 (cynomolgus transferrin receptor-biotinylated) with a flow rate of 10 μL/min and a contact time of 30 sec. The receptors were diluted to a concentration of 50 nM with running buffer (1×PBS #28995084, GE Healthcare, supplemented with 0.25 M NaCl). The antibodies were injected into all flow cells in a concentration series of 100 nM, 50 nM, 25 nM and 0 nM for 180 sec at a flow speed of 30 μL/min. Dissociation time was set to 300 sec. Regeneration of the whole complex from the CAP chip has been performed utilizing the regeneration solution provided in the Biotin CAPture Kit (120 sec with a flow rate of 10 μL/min). To control the active protein concentration a second cycle was performed in spot 5 utilizing biotinylated protein A (#P2165-2MG, Sigma) with a flow rate of 10 μL/min and a contact time of 30 sec. Spot 1 was kept empty in this control cycle. The antibodies and the regeneration were handled like in cycle 1. Relevant kinetic data was calculated using the BIAcore B4000 evaluation software. The dissociation from the human transferrin receptor has been determined applying the 1:1 dissociation fit.

In test [3] the target is T1, human transferrin receptor (BIAcore, …). Nature of the test: SPR (BIAcore), human TfR against cyno TfR.
Test [4] deals with T3, biotinylated cynomolgus transferrin receptor (cynomolgus).
T3 chain: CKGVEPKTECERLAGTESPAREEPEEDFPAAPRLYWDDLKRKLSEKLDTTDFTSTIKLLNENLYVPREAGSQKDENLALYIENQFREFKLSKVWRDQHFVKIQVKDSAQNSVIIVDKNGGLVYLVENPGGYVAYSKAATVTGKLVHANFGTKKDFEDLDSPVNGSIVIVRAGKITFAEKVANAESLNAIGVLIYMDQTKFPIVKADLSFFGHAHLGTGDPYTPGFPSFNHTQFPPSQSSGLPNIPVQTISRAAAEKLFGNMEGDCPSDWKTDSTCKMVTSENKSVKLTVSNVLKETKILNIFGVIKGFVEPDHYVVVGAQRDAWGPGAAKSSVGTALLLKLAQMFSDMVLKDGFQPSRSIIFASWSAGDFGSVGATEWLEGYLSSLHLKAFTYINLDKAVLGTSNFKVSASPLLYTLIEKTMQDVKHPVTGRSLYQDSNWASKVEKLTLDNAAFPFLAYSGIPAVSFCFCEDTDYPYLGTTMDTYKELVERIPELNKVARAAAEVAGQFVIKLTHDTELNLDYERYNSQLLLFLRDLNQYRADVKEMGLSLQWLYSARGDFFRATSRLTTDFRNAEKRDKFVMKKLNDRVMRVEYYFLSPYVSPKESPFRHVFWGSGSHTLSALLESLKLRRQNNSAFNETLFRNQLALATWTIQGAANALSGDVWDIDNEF
The test is described as follows: SPR BIAcore B4000, biotinylated TfR captured, 25 C. As for the experimental part: as §1

The target of test [5] is T3, biotinylated cynomolgus transferrin …. The test is described as follows: SPR BIAcore T200, biotinylated TfR captured, 25 C. As for the experimental part:
For all analysis the Biotin CAPture Kit from GE Healthcare (Instruction 28-9242-34 AB) was used. First the chip was rehydrated by docking it in the BIAcore T200 instrument. After that, the chip was left on standby with running buffer overnight. For surface preparation the Biotin CAPture Reagent was diluted 1:100 in running buffer (1×PBS, supplemented with 0.25 M NaCl). This solution was injected on Flow Cells 1 to 4 for 360 sec with a flow rate of 2 μL/min. Next the sensor surface was conditioned with three one-minute injections of regeneration solution provided in the Biotin CAPture Kit. This has to be done for the docking procedure or for the first time or after storage. A 100 nM human or cynomolgus, respectively, mono-biotinylated transferrin receptor solution should be injected on Flow Cell 2 for 30 sec at a flow rate of 10 μL/min. […] They were injected on the “hu-TfR-flow cell” (e.g. Flow Cell 2 as prepared as outlined above) with an injection time of 180 sec (association) and a flow rate of 10 μL/min. After dissociation phase of 600 sec the surface was regenerated according to the manufacturer's instructions with the regeneration solution provided in the Biotin CAPture Kit and the next cycle was carried out.
The kinetic data was evaluated using the BIAcore T200 evaluation software. Especially the dissociation rate constants of the different human transferrin receptor binders were taken into account after the application of the 1:1 Langmuir binding model.

Test [6] deals with T4, human transferrin receptor on stably transfected CHO-K1 cells (human, UniProt P02786 1-760).
T4 construct: whole, on cells; also called hTfR-CHO; huTfR
Nature of the test: FACS on hTfR-CHO cells.

Test [7] concerns the target T5, cynomolgus transferrin receptor on stably transfected CHO-K1 cells (cynomolgus).
T5 construct: whole, on cells; also called Cyno TfR-CHO; cyTfR
Nature of the test: FACS, cyno TfR against human TfR. On the technique in general: Flow cytometry measures light scatter and fluorescence of single cells or particles in a stream.

Test [8] has as its target T5, cynomolgus transferrin receptor on …. The test is described as follows: FACS on cyTfR CHO cells.
Test [9] concerns the target T1, human transferrin receptor (BIAcore, …). Nature of the test: SPR (BIAcore).
In test [10] the target is T6, cynomolgus transferrin receptor (BIAcore, construct not stated) (cynomolgus, UniProt H9EXL1 89-760 (rhesus entry)).
T6 construct: also called cyTfR; Cyno TfR
Nature of the test: SPR (BIAcore).

B1: clone 299 VH 15 / VL 9-NYA (antibody, V domains shown)
VH: QQLQESGPGLVKPSETLSLTCTVSGFSLSSYAMSWVRQPPGKGLEWIGYIWSGGSTDYNPSLKSRVTISVDTSKNQVSLKLSSVTAADTAVYYCARRYGTSYPDYGDANGFDPWGQGTLVTVSS
VL: AIQLTQSPSSLSASVGDRVTITCRASQSISSYLAWYQQKPGKAPKLLIYRASTLASGVPSRFSGSGSGTDFTLTISSLQPEDFATYYCQQNYASSNVDNTFGGGTKVEIK
Broadly, the koff is a measure of how fast the partners let go of each other. In test [1], B1 came in with a koff of 0.00142 s⁻¹.

B2: VH9-DANG / VK9-NYA (antibody, V domains shown)
VH: QQLLESGGGLVQPGGSLRLSCAASGFTFSSYAMSWVRQAPGKGLEWVGYIWSGGSTDYADSVKGRFTISRDNSKNTLYLQMNSLRAEDTAVYYCAKRYGTSYPDYGDANGFDPWGQGTLVTVSS
VL: B1 VL
For the molecule B2, the koff in test [2] amounted to 0.00182 s⁻¹.

B3: VH7-DANG / VK6-SYS (antibody, V domains shown)
VH: B2 VH with L4V, S6T, V11I, T27S, F28L, V47I, D60S, S61W, V62A, K96R
VL: B1 VL with A34S, N91S, A93S
Consider B3, for which, in test [2], the koff worked out at 0.0308 s⁻¹. Compared with the last molecule, the koff is about 17-fold higher.

B4: VH23-DANG / VK12-HYS (antibody, V domains shown)
VH: QSMQESGPGLVKPSQTLSLTCTVSGFSLSSYAMSWIRQHPGKGLEWIGYIWSGGSTDYASWAKSRVTISKTSTTVSLKLSSVTAADTAVYYCARRYGTSYPDYGDANGFDPWGQGTLVTVSS
VL: B1 VL with A1D, L4M, G66R, N91H, A93S
In turn, B4 yielded an off-rate (koff) in test [2] of 0.0153 s⁻¹.

B5: clone 299 VH 17 / VL 9-NYA (antibody, V domains shown)
VH: B1 VH with V70K, Q116P
VL: B1 VL
B5: the koff in test [1] was found to be 0.000934 s⁻¹.

B6: clone 299 VH 16 / VL 9-NYA (antibody, V domains shown)
VH: B1 VH with Q116P
VL: B1 VL
In turn, B6 had a koff in test [1] of 0.00136 s⁻¹.

B7: VH9-DANG / VK2-SYS (antibody, V domains shown)
VH: B2 VH
VL: B1 VL with A1D, L4M, A34N, N91S, A93S
As to B7, in [2], the off-rate (koff) was 0.0402 s⁻¹.

B8: clone 299 VH 19 / VL 9-NYA (antibody, V domains shown)
VH: B1 VH with Q2S, L3M, E15Q, V36I, P39H, N59A, V77F
VL: B1 VL
Molecule B8 yielded a koff in test [1] of 0.00617 s⁻¹.

B9: VH23-DANG / VK6-SYS (antibody, V domains shown)
VH: B4 VH
VL: B1 VL with A34S, N91S, A93S
In turn, B9 showed a dissociation rate constant (koff) in test [2] of 0.0132 s⁻¹.

B10: VH23-DANG / VK17-TYS (antibody, V domains shown)
VH: B4 VH
VL: B1 VL with N91T, A93S
As to B10, the koff in test [2] stood at 0.00229 s⁻¹.

B11: VH23-DANG / VK2-SYS (antibody, V domains shown)
VH: B4 VH
VL: B1 VL with A1D, L4M, A34N, N91S, A93S
In turn, B11 had an off-rate constant (koff) in test [2] of 0.00522 s⁻¹.

B12: clone 299 VH 20 / VL 9-NYA (antibody, V domains shown)
VH: B1 VH with Q2S, L3M, E15Q, V36I, P39H, N59A
VL: B1 VL
Regarding B12, in test [1], the koff was found to be 0.00189 s⁻¹.

B13: clone 299 VH 22 / VL 9-NYA (antibody, V domains shown)
VH: B1 VH with Q2S, L3M, E15Q, P39H, N59A, P60S, S61W, L62A
VL: B1 VL
The molecule B13 came in with a dissociation rate constant (koff) in [1] of 0.00126 s⁻¹.

B14: clone 299 VH 21 / VL 9-NYA (antibody, V domains shown)
VH: B1 VH with Q2S, L3M, E15Q, V36I, P39H, N59A, P60S, S61W, L62A
VL: B1 VL
The molecule B14 showed a koff in test [1] of 0.00113 s⁻¹.

B15: murine anti-transferrin receptor antibody 128.1 (antibody, V domains shown)
VH: QVQLVQSGAEVKKPGASVKVSCKASGYTFTGYTMNWVRQAPGQGLEWMGRINPHNGGTDYAQKFQGRVTMTRDTSISTAYMELSRLRSDDTAVYYCARGYYYYSLDYWGQGTLVTVSS
VL: DIQMTQSPSSLSASVGDRVTITCRASSSIRYIHWYQQKPGKAPKRLIYDTSNLASGVPSRFSGSGSGTEFTLTISSLQPEDFATYYCHQRNSYPWTFGQGTRLEIK
notes: Mouse anti-human TfR antibody
By Kd is commonly meant the concentration at which binding is half-saturated. Lower therefore signals higher affinity. Usually kon stands for the rate constant with which the complex forms. A higher kon goes with faster complex formation. The term EC50 denotes the concentration giving half of the maximal effect. With B15, in test [3], the “ratio t1/2 human/Cyno” value was 90.2. Besides, the dissociation rate constant (koff) in test [4] was found to be 0.0778 s⁻¹; in test [5], 0.0733 s⁻¹; in test [9] it was 0.000606 s⁻¹; in test [10], 0.0547 s⁻¹. For the same molecule, in [5], the affinity, expressed as Kd, was 136 nM. This molecule also returned a kon in test [5] of 541000 M⁻¹ s⁻¹. The EC50 worked out at 0.096 µg/mL in test [6] and 0.314 µg/mL in [8]. Moreover, in test [7], the “ratio EC50 Cyno/human” value amounted to 3.3. Besides, the “ratio max Cyno/human” value in test [7] was 0.6.

B16: VH23-DANG / VK15-AYS (antibody, V domains shown)
VH: B4 VH
VL: DIVMTQSPDSLAVSLGERATINCKSSQSISSYLIWYQQKPGQPPKLLIYRASTLASGVPDRFSGSGSGTDFTLTISSLQAEDVAVYYCQQAYSSSNVDNTFGGGTKVEIK
B16: the dissociation rate constant (koff) in test [2] was determined as 0.00697 s⁻¹.
